Results: the DeepSol protein solubility set

Assay: soluble on expression in E. coli; label from the status in PepcDB or PDB records

Sequence | soluble on expression in E. coli
MNPIVKAPTLNDLPAPPPGKTGWPWTEQNEALPEKMPDGSDWPKISIVTPSYNYGQFIEETIRSVLLQGYPNLEYIVVDGGSTDNTVTIIRKYEKYLKYWASEPDHGQTDAINKGYRYCSGDVFAWLNADDLYYDQSTLLKVINFYQKGYDLIVGECLNINADGTHFNQAITSTEKSDPTYFKKYLRYWSSGFLPQPAIFVKKEMADQCFPLSIELYYAMDFQFFLRVLNQEPKSVWIQEKLTRLRWHEDSKTMGTISRIDFHAIVPEPEVHKVALAEAENLPTWLEKIFFRIQAFDYLSLQPYINSLDNFHWLQITKTIVKRPTLAVWPLFWKIFFRSLLGEQIYKLLKRTIRTNLEHHHHHH | not soluble
MNQEKIADLKNWMHQEKIDFTYISDPGHIAYFSGYESEPHERVLALFIAADDQSFLFTPALEVEDAEKSSWTYPVYGYLDSENPWEKIAALLNKRTQGTPRFALEKQALSLARFDQLKTYFPASDFSHDVTPLIEKLQLIKTEPEIQRLLEAGSWADVAFEIGFKAIQAGVAEQEIVAEIEYQLKRQGIRSMSFDTLVLTGKNGASPHGVPGETKIEPHDLVLFDLGVVHNGYCSDATRTVSYLEPSDFQKEIYGIVLEAQLAATEAVKPGVTAGELDDIARGVITKAGYGEYFNHRLGHGIGTTVHEYPSLVHGNDLVIEEGMCFSIEPGIYIPGKVGVRIEDCLHVTKTGSEPFTKTTKELQIIQ | not soluble
MNQKIYWDELKEGEQFSYGHYQVSEHENIDFAKRYDPMEFHVDPEKAKLSPIGALCASGIHTLGIMQRLTFDNIYTNWHIVAGRELRKCQFRLPVFVDDCLTVNMTIAKLSVDTRSDRGNAELTFDVKNAKGKTVLEVEGEIVLQRFPSILEHHHHHH | not soluble
MNQLLKTLRDFGLSSYEASAYVALVSSGETTAREVSRKAGIPRTKVYEVLNRLVEKGFAEVQPGSPAIFRAIEPAKIAARMQRDFNERLGKMLKAFEELKMDEKSESKLVWISRGRWAVENRLREFLRENDKVMVFCITENFASVLSEVRGEHRVLLYQKFRVPENIREFRVLDLGRIKKAKDGFVARFAEIIEGTEAGKPEILIISEGSSILALSHGEEYLALSIHLPLIVALQKRMFDTLYESYC | not soluble
MNRDIGKNAERELVSILRGEGFNAVRIPTSNSSPNPLPDIFATKGNTLLSIECKSTWENKVKVKEHQVRKLLDFLSMFTMKGVPLIAIKFKQVHEWRVLVPEKAEDIIVTIDNSIPIEDLFKILEKRIEEKILTP | soluble
MNRGVIVTGGGHGIGKQICLDFLEAGDKVCFIDIDEKRSADFAKERPNLFYFHGDVADPLTLKKFVEYAMEKLQRIDVLVNNACRGSKGILSSLLYEEFDYILSVGLKAPYELSRLCRDELIKNKGRIINIASTRAFQSEPDSEAYASAKGGIVALTHALAMSLGPDVLVNCIAPGWINVTEQQEFTQEDCAAIPAGKVGTPKDISNMVLFLCQQDFITGETIIVDGGMSKRMIYHGDWNWFYKIDK | soluble
MNRIYLYLLIVLILAGCSSPGGRYDMSDDQAPDTPLSVEHIEDAHPQYEPYSFGGNKDYNLRGKSYRIIKNPKGFTESGKASWYGKKFHGHLTSNGEIYDMYSMTAAHKTLPIPSYVKVTNTDNGKSTVVRVNDRGPFHDGRIIDLSYAAAYKIGVVQAGTANVRIEVITVDKPTKPRPKSKNNALEYVIQVVSSQHIERVRTLAQNLGQNLSAPSFVESTNNTHRLFLGPFTDDDLTQTLLEQVKSAGYDSAFIKTINKRAK | not soluble
MNSAHRSSLKKRPGPQDDRRVSFASPVSSSQKTAAVTVAAQTKQPAKAKNLRTMHSTPKKSKPAHDVADIISLVSKQSDILDDVSEIEHKMIKQAKMTQDLTMELANSIERIANMALAESKLSDQMEKQSKKLISLEGKTKELVEKANNWSKTLENRVDARSHHSTCLNDVQAAIKIINNAKINNDGFSEDFSAHYDKLLDLVETLEPWADKL | soluble
MNSNANNTPIAIGISQVFPCSYLDGQQEQLLVIQEETLDPILFERLLAIGFRRSGSAIYKPRCPRCSACQPIRVPIQEFVPSKRQKRTLAHNRDLTWRITTEHTETQYALYEKYIRERHFDGPMYPPSKAQYEQFLFCHWLPPTFIEVYDDNRLVAVAVTDTLPNSFSAIYSYFDPDEERRSLGVLLILLQCRLAKLQGKAFLYLGYQIDANRKMSYKRLYRPYQILTHQGWEYSQVCLEHHHHHH | not soluble
MNSNEDIHEERIEVPRTPHQTQPEKDSDRIALRDEISVPEGDEKAYSDEKVEMATTNASSNFGSNESAKDGESIGAFSNPHEALMQSKLREESQSKTILPSDDLSQQLETEESKVEEALKRITSPPLPPRADCIEESASALKSSLPPVLAGNKNDQAPLDRPQLPPRQVVNAETLHLKAPHGNATPSKSPTSAVGNSSSSTPPTLPPRRIEDPLDLAAQKHFLASTFKRNMLFYKSEDNSIKCDLDKNILNLKEDSKKINNNEIPEEVSSFWLKVIGDYQNILINDIETLHFQLSRGIPAAYRLVVWQLVSYAKSKSFDPIYETYLTEMAPFDVQEFENQLKMMDEVPSEYVKRISNVLKAYLLFDPECEFSTDIAYIINMILDVCEEEANAFGLLVRLMKVYGLRLLFLPSASEIDILCYKFDRLVEEFYPEIHNHMVEKGVRSSMFLPGFFTTLFQKKLPTEIQPRIGDMVFLEGIDSIMRILATLLSNSRDHLLKMGFDDMLELLKSGLLDAYIKQNDGTRGDTLLSNECMDKLLQDSMMKVAITPKTMKKYSSEYEEIHRLDNEKEVQYKSITEKNLHLQKHVRKLENDYTSLNREHVTIANELVKNRLNIESVLNENNGYKLQILDLKKKLDSEKKKQVLGVYVPNDLKKDLEETMKKNTQVMDENLKLQDRISELERLIEEIKTANKNGTLFEYSNSKNNPLGAGWSGFKKVFK | soluble
MNSSTENVTLKLKSEQLDIAKQWIQTEDVKAYKETSSIQKTFTIPVEREELVIEKIPTASDDKKEVIRIPLSEEEVNFSKHRIILEDVSIYKNQIEDVRHIEETLKKENPKIETFGNAKVIKKLEHHHHHH | not soluble
MNSVSEPVPSHGKKPPKNVLAEHGGWKILRILLVSTYKDFRNERRAVLDLVENKLQPIASEKHVILQVEDFSWGSKAHLEEASSLYLIERLCREAVSSSSYFYLHFLGECSGYILDPNFTDQSFLRQHSISTGQSFSEVFLQLSGLQNEKSLFLYRNPSFHQELPFNVTHFIDGPVNRERAKYLTTMVRGEAPASKFIEYSVRTSGINNIHFKHIMFDELSGITKPIEAMVGKYLEKLPDGEAGIPSVEEFMNEYYSQLHVNQTIMSKIEYNLKSHKSILLVGDYCTGKTSILHRIQWKYRDAVIVQAKEKMSAIELRRAIEAKTNVILHDVEQKVVRYLLVDDIHLNFCENFKVKITLSQILQNFNCFAQIFSLLKQIFINFFQASKEAQQYLIGNEELVIVATSRKKKLEVDMNRIIIPHLEPEDILDELSFWLNGGEKEKSGVPSVKASNILKMSQQKRRRSIGTVEDGHQPDENIGWNSLKCRVIGTLGRIGSSDEKCAQLAQLSTLSVVEADMCLMESDGKGHLLIATLCYLTIVESGLNEMELRSLLILEYNLLPIAIRRNYKNLPFDYCPDEFGTTSCTQTLPLRWYFVLHRLGHLFMKIDGDSNHFVLPSACRRVVFKKYLKHPHNLEHFKKNFKEFLTNFSGKEWNRNRQIKMYL | not soluble
MNTEICSILERQARIFNVQKYSLYDGPGIRTLIFFKGCPLRCKWCSNPEGLERKYQVMYMEDSCIHCGNCIPVCPVNIHSFANRDGETVPTHYEPPKHTINRNIDCVGCRKCETICPKKALSIAGKDLKISEVLEIIQQDALFYLSSGGGVTLGGGEVTAQPEFATNLLMECQRMGINTAIETCGYAKLDTLLMIAQFTDLFLYDLKHIDPERHYELTGVRNERILDNLTELIHRGFNIKIRMPLIRGMNDSQDTIRRTMEFLQPFSSCKNFQGIDLLPYHKLGINKYKQLDMNYTITEDLSFKAEELDEIARIIGGYDLRAAVIRH | not soluble
MNTVPFTSAPIEVTIGIDQYSFNVKENQPFHGIKDIPIGHVHVIHFQHADNSSMRYGYWFDCRMGNFYIQYDPKDGLYKMMEERDGAKFENIVHNFKERQMMVSYPKIDEDDTWYNLTEFVQMDKIRKIVRKDENQFSYVDSSMTTVQENELLKSSLQKAGSKMEAKNEDDPAHSLNYTVINFKSREAIRPGHEMEDFLDKSYYLNTVMLQGIFKNSSNYFGELQFAFLNAMFFGNYGSSLQWHAMIELICSSATVPKHMLDKLDEILYYQIKTLPEQYSDILLNERVWNICLYSSFQKNSLHNTEKIMENKYPELLGKDNEDDALIYGISDEERDDEDDEHNPTIVGGLYYQRP | soluble
MNTYFDIPHRLVGKALYESYYDHFGQMDILSDGSLYLIYRRATEHVGGSDGRVVFSKLEGGIWSAPTIVAQAGGQDFRDVAGGTMPSGRIVAASTVYETGEVKVYVSDDSGVTWVHKFTLARGGADYNFAHGKSFQVGARYVIPLYAATGVNYELKWLESSDGGETWGEGSTIYSGNTPYNETSYLPVGDGVILAVARVGSGAGGALRQFISLDDGGTWTDQGNVTAQNGDSTDILVAPSLSYIYSEGGTPHVVLLYTNRTTHFCYYRTILLARAVAGSSGWTERVPAYSAPAASGYTSQVVLGGRRILGNLFRETSSTTSGAYQFEVYLGGVPDFESDWFSVSSNSLYTLSHGLQRSPRRVVVEFARSSSPSTWNIVMPSYFNDGGHKGSGAQVEVGSLNIRLGTGAAVWGTGYFGGIDNSATTRLATGYYRVRAWI | soluble
MNVGDVVKGEVLAIDDDKQVIVGIQGTGVEGVVPLKELSTQRVDDVNEAAKVGDVLDLVVISRIGSDKENGSYLLSHRRLEARKVWDDVEKEYEAGHTIKAPVTQVVKGGLVVDAGVRGFIPASMIDDHYVEDLNAYKGQELELKIIEIEPSENRLILSHRAVVEKQREALEHHHHHH | soluble
MNVGYLCTYTPKELIDAAGFTPIRIFAGDMQISLATAHIQSYACSQARGSLERALRGELDVQAVVFTRCCDTLMRLADIWERNTDMRVYNIEFPTRVEERSKDYYFNELKDFVKVLEEWGGGVTLESLRESLKLYHELEEKLKRLFSLKPDYEAAKRVQEMNVREAIKFVDERLRKAESEGGKPRVLITGSVCPFVEVYTLFEEAGFALKDDICTGTRFFTFNTPPREIGSVDEGLRFLVDKYFEKAPCPTKHFPNDDRFKYILEMAKDCDGVVFLLLKFCEPHFYDYPQLKERLEEMGKKVLLLELEFPIASIEQLRTRIEAFYEVIA | not soluble
MNVIEGVVATPNARVAIAIARFNNFINDSLLDGAIDALKRIGQVSDDNITVVWVPGAYELPLVANVLAKTNRYDAVIALGTVIRGGTAHFEYVAGEASSGLSSVAMNSDIPVAFGVLTTESIEQAIERAGTKAGNKGAEAALTALEMINVIKAIKG | not soluble
MNVIVEISDRLGMDYYFVSVTTTAKSLQLNSPKKYYKIWHQEIPYHQITEWHLTQQEDIQEISFAWQETFYRFVDYGTGIVPYLTQFCKVMR | not soluble
MNVTRKKGPLYLQIKNIIRDRILHGVYAIHTNIPSEPQLEEEFKVSKITVRNAIKELAQEGYLEKKSGKGTKVIRNTSATKLSKGKKFTEVLVEEGYKVQKKLLKAEIVHNEEGTVPFRLFGKESFRIERLYTLNDAPYIHYTHYFSAHMASTDLSDFDLQSLYDLVEDRGIHLENFRDEFAVGLAPSFVAEALGEKEGTALLKRMRYSYDEVGEVIEYSEGYYNTEMQHYVVNYDV | not soluble
MNVTSKPGELVPESDVAAIMRGTHGDPFRVLGMHGGGGAPLSVRVFAPQAAEVAVLGQGGEVLAPLERIGAEGFFAGTVPGEEKFPYRLRFVSGPHEWEADDPYRFPEVLG | not soluble
